± gives the uncertainty stated by the source.
Assay: self-splicing fitness, log relative to wild type (ln ratio); higher = more splicing; Tetrahymena group I intron in knt gene, E. coli kanamycin selection, DiMSum; sequences stand for … in CUCUCU…GGAGGGAAAAGUUAUCAGGCAUGCACCUGGUAGCUAGUCUUUAAACCAAUAGAUUGCAUCGGUUUAAAAGGCAAGACCGUCAAAUUGCGGGAAAGGGGUCAACAGCCGUUCAGUACCAAGUCUCAGGGGAAACUUUGAGAUGGCCUUGCAAAGGGUAUGGUAAUAAGCUGACGGACAUGGUCCUAACCACGCAGCCAAGUCCUAAGUCAACAGAUCUUCUGUUGAUAUGGAUGCAGUUCACAGACUAAAUGUCGGUCGGGGAAGAUGUAUUCUUCUCAUAAGAUAUAGUCGGACCUCUCCUUAAUGGGAGCUAGCGGAUGAAGUGAUGCAACACUGGAGCCGCUGGGAACUAAUUUGUAUGCGAAAGUAUAUUGAUUAGUUUUGGAGUACUCGUGGUCG
How it was run: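 The eight P1ex-region nucleotides of an intron in the knt kanamycin-resistance gene on pET-22b(+) were all randomised and the library put into E. coli BL21(DE3). Six replicate transformations were grown overnight at 37°C or 30°C on LB agar with or without 25 μg/mL kanamycin, together with 100 μg/mL carbenicillin, 50 μM IPTG and 0.2% rhamnose. Colonies were pooled and amplicon-sequenced on an Illumina HiSeq 2500. Fitness from DiMSum is the error-weighted combination of wild-type-normalised replicate fold changes, kanamycin over none.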

Sequence | self-splicing fitness (ln) (30 °C) | self-splicing fitness (ln) (37 °C)
AAAUAGCAAUAUUACGGGUG | -1.49 ± 0.11 | -1.65 ± 0.14
ACCAAGCAAUAUUACGCGUA | -1.11 ± 0.075 | -0.487 ± 0.075
CAUCAGCAAUAUUACGAAAA | – | -2.89 ± 0.28
CGUUAGCAAUAUUACGGUGU | -3.37 ± 0.19 | -2.29 ± 0.17
GGGUAGCAAUAUUACGGGUU | -2.7 ± 0.15 | -1.27 ± 0.14
CUCAAGCAAUAUUACGGCUG | -3.41 ± 0.26 | -2.57 ± 0.27
GUGUAGCAAUAUUACGCUAA | -1.77 ± 0.42 | -1.01 ± 0.3
GUGCAGCAAUAUUACGACAC | -1.57 ± 0.25 | -0.906 ± 0.2
CCGUAGCAAUAUUACGUGAU | -3.04 ± 0.14 | -2.43 ± 0.18
CGAUAGCAAUAUUACGUGCA | -2.67 ± 0.15 | -2.13 ± 0.16
UGAUAGCAAUAUUACGUCCG | -0.219 ± 0.11 | -0.0349 ± 0.13
AGAGAGCAAUAUUACGGUGG | -2.76 ± 0.23 | -3.44 ± 0.37
CCUUAGCAAUAUUACGCAUU | -4.02 ± 0.46 | –
UUCGAGCAAUAUUACGGUUA | -1.19 ± 0.13 | -1.05 ± 0.1
UAUGAGCAAUAUUACGGACC | -2.56 ± 0.41 | -2.43 ± 0.31
UGUUAGCAAUAUUACGGGCG | -0.142 ± 0.11 | 0.388 ± 0.12
GAGCAGCAAUAUUACGGGCG | -2.09 ± 0.14 | -0.811 ± 0.16
GCGCAGCAAUAUUACGGUUC | -0.737 ± 0.077 | 0.0559 ± 0.082
GCUUAGCAAUAUUACGUCGU | -0.74 ± 0.097 | 0.231 ± 0.14
GCACAGCAAUAUUACGGCCU | -1.66 ± 0.11 | -0.461 ± 0.12

Sequence | self-splicing fitness (ln) (30 °C) | self-splicing fitness (ln) (37 °C)
GGUCAGCAAUAUUACGUUCA | -0.169 ± 0.13 | -0.487 ± 0.13
AUUGAGCAAUAUUACGAUCU | -1.28 ± 0.11 | -0.471 ± 0.14
UAGCAGCAAUAUUACGGUGC | -2.2 ± 0.22 | -3.51 ± 0.42
CCUGAGCAAUAUUACGACGA | -2.99 ± 0.24 | -1.61 ± 0.17
CAUGAGCAAUAUUACGGCAA | -2.43 ± 0.17 | -2.02 ± 0.28
AACUAGCAAUAUUACGCGAG | -1.82 ± 0.11 | -0.501 ± 0.12
UAGUAGCAAUAUUACGGGUC | -4.67 ± 0.46 | -2.97 ± 0.47
CUUCAGCAAUAUUACGCGCU | – | -1.96 ± 0.46
CAUCAGCAAUAUUACGCAAU | -4.01 ± 0.24 | -3.15 ± 0.17
AGCAAGCAAUAUUACGCUAA | -2.93 ± 0.2 | -1.69 ± 0.16
UCUAAGCAAUAUUACGGAAG | -4.81 ± 0.46 | -1.49 ± 0.17
CACAAGCAAUAUUACGCACU | -2.4 ± 0.13 | -1.33 ± 0.11
GAGUAGCAAUAUUACGGACG | -3.14 ± 0.28 | -0.531 ± 0.2
CCUUAGCAAUAUUACGCCGA | -2.16 ± 0.35 | -1.98 ± 0.46
AAUCAGCAAUAUUACGUAGA | -0.378 ± 0.071 | -0.124 ± 0.089
UUCUAGCAAUAUUACGAUUA | -0.696 ± 0.14 | 0.682 ± 0.12
UUCUAGCAAUAUUACGGAGC | -2.48 ± 0.44 | –
CUGAAGCAAUAUUACGGUGU | -3.3 ± 0.1 | -2.95 ± 0.12
AUCAAGCAAUAUUACGACCC | -1.34 ± 0.17 | -0.0224 ± 0.3

From the supplement of paper PMC7877785
